Results: the DeepSol protein solubility set

experiment: soluble on expression in E. coli; label from the status in PepcDB or PDB records

Sequence | soluble on expression in E. coli
MAVVFKKTEGLQDTQTHYCPGCTHGIIHRLVGEVLEELGVLGDAVGVVPVGCSVLGYKYFNCDTQEAAHGRAPAAATGIKRVHPENTVFTYQGDGDLASIGTAEIVHAAARGEKITTIFVNNTTYGMTGGQMAPTTLVGQRATTAQSGRNAETQGYPIRVSEMLATLTGAVFVERVAVDTPAHVRQAKKAIKKAFQVQQAGLGFGIVEVLSTCPTNWGLAPNDALQWLRDNMIPYYPLGNFKNVEVEEVK | not soluble
MKVILLITIFLSFYSSAETIVVEDTLFYEVAPTSKDDLLETLNSSSPIREDGNVFHGYTKYEINWRFWWKSNNNQCAFTKVETTLKLKYTMPQLTSSKSDVNVVWSNWYPNLEKHEKGHGKLAKDTAFKIEKDLLSIGPKANCNLLEKAGNKLAYKLMATLKKANKQYDIKTNHGETQNAWLYLHL | not soluble
MLGNLKPQAPDKILALMGEFRADPRQGKIDLGVGVYKDATGHTPIMRAVHAAEQRMLETETTKTYAGLSGEPEFQKAMGELILGDGLKSETTATLATVGGTGALRQALELARMANPDLRVFVSDPTWPNHVSIMNFMGLPVQTYRYFDAETRGVDFEGMKADLAAAKKGDMVLLHGCCHNPTGANLTLDQWAEIASILEKTGALPLIDLAYQGFGDGLEEDAAGTRLIASRIPEVLIAASCSKNFGIYRERTGCLLALCADAATRELAQGAMAFLNRQTYSFPPFHGAKIVSTVLTTPELRADWMAELEAVRSGMLRLREQLAGELRDLSGSDRFGFVAEHRGMFSRLGATPEQVKRIKEEFGIYMVGDSRINIAGLNDNTIPILARAIIEVGV | soluble
RMALSVLASSKEELFMPLLSQEAAHPDEWAGRLKNLSVNAEHAVTASLKNAEKAAVILGAEVQNHPDYAAVYAAAQELADATGAVLGILPQAANSVGADVLNVNSGKSVVEMVNAPKQAVLLLNVEPEIDTADGAKAVAALKQAKSVMAFTPFVSETLLDVCDVLLPIAPFTETSGSFINMEGRLQSFHGVVQGFGDSRPLWKVLRVLGNLFDLKGFEYHDTAAILKDALDVESLPSKLDNRNAWTGEGVQTTSDRLVRVGGVGIYHTDSIVRRSAPLQETSHAAVPAARVNPNTLARLGLQDGQTAVAKQNGASVSVAVKADAGLPENVVHLPLHTENAALGALMDTIELAGA | not soluble
MGSDKIHHHHHHMIHTREEQMEAFGRFLDILDELRVKCPWDRKQTNESLRPNTIEETYELCDALMRDDKKDICKELGDVLLHVAFYAKIGSETGDFDIKDVCDKLCDKLIFRHPHVFGEVKAETAGQVSENWEQLKLKEKDGNKSVLSGVPSALPSLIKAYRIQDKARNVGFDWEEREQVWDKVKEEIREFQVEVANMDKEKAEAEFGDVMFSLINAARLYKINPDNALELTNQKFIRRFNYLEEHTIKEGKNLKDMSLEEMDAIWNEAKRKGL | not soluble
MGSDKIHHHHHHMAFVGFKKSGKTTTIEKVARVLKEKGYRVAIVKSMHSEFDRPGTDTWKFSRIADSVLVHAKDTDALLFKAKDINALFSMISSDVVLIEGFKSIKHVPKVICARSEDEVRELNDGLAIAVSGVIASQGVKEVDGLPVIDGTREPEKLAELVLKRGFMLPNIDCGLCGFNCEQMAKLIVKGEKSVNDCVVLSSRPKVIIKIDGQPLYLKDWVQELVEKTIKGMLSAMKGYREGKRIEIIING | not soluble
MCMSWSKVKYFFFDTPEEKEAAQYSYEKEQTDMKKQQDPPEQQDVTFPKAQPKQNVVSIETAKQSSKVVLLEPRTYSEAQGIADHLKGRRAVVINLQRMSTDQAVRIVDFLSGTVYAIGGDIQKIGPKTFMTPENVDIVGAISELFGEEEDTNIKRWLEHHHHHH | soluble
MPPVVPCHCTQCRKWSGHFWAATSVAMADFRLVRDEGLRWFRASDTASRGFCALCGSSLSWKPDGRDRMSFSPGAVDGPTGLATGHHIFMDEAGDYCRVSDGTPHYPGDDEA | not soluble
MEKVVCIGCGVTIQTEDKTGLGYAPPASLTKENVICQRCFRLKNYNEIQDVSLTDDDFLNILHGIGETDSLVVKIVDIFDFNGSWINGLQRLVGGNPILLVGNKADILPKSLKRERLIQWMKREAKELGLKPVDVFLVSAGRGQGIREVIDAIEHYRNGKDVYVVGCTNVGKSTFINRIIKEVSGEEDIITTSQFPGTTLDAIEIPLDDGSSLYDTPGIINNHQMAHYVNKKDLKILSPKKELKPRTFQLNDQQTLYFGGLARFDYVSGERSPFICYMPNELMIHRTKLENADALYEKHAGELLTPPGKDEMDEFPELVAHTFTIKDKKTDIVFSGLGWVTVHDADKKVTAYAPKGVHVFVRRSLILEHHHHHH | soluble
MAFGLPDTAALNKAADQKTSVSMPVRGRLVMNDSGILDVQLVKTNTAGAVKVARAVLDKETGYWGYTLPAVADVPAQTIFVSPADALGANGPLTLSGPVPLPERILHTGDQISAPQATDKTVTPVADDLDFDDIILVFPPESGLKPLYVMYRSPRNMPGTVSGKGLEHHHHHH | soluble
AQGRQPRTETLHAERRAAGAWLAKRMGLEDSAPVYFLQRRRWVDERPVLIELIALDAGWCPGLLDHDLDTSLMSLLRERFGLQPTRCQLAMHPTALNAAQAEPLQLAPGSPALYLERLSYAEGQRVVEFDQEFWRPDALEIVLDAAYPGA | soluble
MKIGDISIHYLNGGNTKMDGGAMFGVVPKPLWSKQYNANERNQINLPTHPILIQTAQYNLIIDAGIGNGKLSEKQLRNFGVDEESHIIADLANYNLTPKDIDYVLMTHMHFDHAAGLTDQAGHAIFENAIHVVQQDEWHEFIAPNIRSKSTYWDKNKGDYSNKLILFEKHFEPVPGIKMQHSGGHSFGHTIITIESQGDKAVHMGDIFPTTAHKNPLWVTAYDDYPMQSIREKERMIPYFIQQQYWFLFYHDENYFAVKYSDDGENIDAYILRETLVDNNLEHHHHHH | soluble
MTPLPVTVIGGYLGAGKTTLVNHLLRHAAGRRLAVLVNEFGDLPIDADLIEAEEDGMISIAGGCICCSFGSDLIGALNDLAAMEPRPDHILVESSGVAIPGAIVSTMLLADGIRSDGIVVVVDGETVRQRAQDDYVGDTITRQLSDAEIVVVNKTDLLAHAVQTELMEWLAEAAPGAIAIPAERGRVAPGALLGVLPAPGTGQPAHHSDRLFDSLVLAPEGGQPIERLARDLATGPHGVIRAKGYLRDIEGALWLIQTVGRRWEVTPAQGPHQTGLVCIGFRDRLDRSGLAALAGATV | not soluble
MIAEQHQAVVDSGASKKGAKVGFVSLGCPKNLVDSERILTQLRTEGYDVTNSYDDAELVIVNTCGFIDSAVQESLDTIGEALAANGKVLVTGCLGVKKDEIIELHPNVLGVTGPHAYDEVLAQVHEHVAKPEHNPFIDLVPPQGVKLTPKHYAYLKISEGCNHRCTFCIIPSMRGDLDSRPVGDVLGEAKRLVDSGVKELLVISQDTSAYGVDVKHKTDFWDGMPVKTHMQQLCEELAKQGVWIRLHYVYPYPHVDKIIPLMAEGKILPYLDIPFQHANKRILKLMKRPGSSDRVLERIAKWREICPELVIRSTFIVGFPGETEEEFEELLNFLEEAQLDRVGCFKYSPVEGATANALPDHVSDEVMEDRLQRFMAVQAKISSDKLQVRIGQEYLILVDEVNGLGIVGRSYMDAPEVDGKVYLSDDYDAKPGDQIWVQIIHADEHDVWGVRVED | soluble
MTATPVLALSEFQGAPAPIAGEQNAAPGDEAEEAAPEERTPLEIPMPDPLVDRTAVELKDDEIAAPDVVEPVEVLTDVSKIPVPVARMRELIVEAAASGDIERLRPLLGKGPTQTQVTATAGEDDPIAALKSLSGDQDGIEILAILLDVMSTGFVLADKGTPEEAYVWPYFAEKPLSSLTAPEKVDLFRLVTAGDFAGMEEFGTYNFYRVGITPDGKWKFFVAGD | not soluble
MVDPPGNDDDHGDLDALDFSAAHTNEASPLDALDDYAPVQTDDAEGDLDALHALTERDEEPELELFTVTNPQGSVSVSTLMDGRIQHVELTDKATSMSEAQLADEIFVIADLARQKARASQYTFMVENIGELTDEDAEGSALLREFVGMTLNLPTPEEAAAAEAEVFATRYDVDYTSRYKADD | soluble
MNNLSVNGSSNGLFAKPTIGRSEYGRVKVALAPGKGFMDWLRLTTNKHLAKRVSGGVDHVELMKHNTKDDCWVHLFGIVYDVTKYLDFHPGGIPELLRGAGRDATPLFNQYHAWVNYESMLKACVVGPFIGDLTKLPSPLPPTTSDDKNKLGVPSSALFSTDPSENGYGARVETLSDNSGISFEHDDWTELTEHNTSINTRGEENTEEHARLRVLIHHFWKPAMEFEFEPTPALCHVEYTLKIMKNRVEIRFSREISGGKIDRSKCKIQRRPGVTYHTTEIIDRYRLNHDTLIFSLQLPEHTTYRIPIGHHVSIKIRKGSMGKFSWKFFLIFGYSVLYRPYTPISNPDPQKIDFMIKIYSNGICTPSLENLKIGGELEISDPIGERNFAEWTENAQELILLAAGSGITPMIDIMEKRIQKTENSNSKVYFLMFNKTENDLQTGKPEENPKSTWKMADFYSKYRGDERIVMKNVLSASECPVETGEYFNGRVSTDLLNSIISTSSTASRRAFICGPDGFILAAKTALESLNLHSDQIHIFQG | not soluble
MAQMYFYYSAMNAGKSTTLLQSSFNYQERGMTPVIFTAALDDRYGVGKVSSRIGLQSDAHLFRPDTNLYQEIAALHEVEKRHCILIDECQFLSKEQVYQLTEVVDKLHIPVLCYGLRTDFLGELFEGSKYLLSWADKLVELKTICHCGRKANMVIRTDEHGVAIKEGDQVAIGGNDRYVSVCRQHYKEALGKLEHHHHHH | soluble
TSKETFTHYQPQGNSDPAHTATAPGGLSAKAPAMTPLMLDTSSRKLVAWDGTTDGAAVGILAVAADQTSTTLTFYKSGTFRYEDVLWPEAASDETKKRTAFAGTAISIV | soluble
MAASLRSFLEQLKRQNSLYLVKKPVNPRFELGALLKKTKGTVPMFFQNIEGYDVPAVGGIVGTRENFAQALRINKSELLAKITEAITNPGETRLLPSGPVQENVLTKGFDIGKMFPIPTFHEKDSGAFITAGIVVAKDPIYGRRFTSIRRMQLNGPNNLSILIESPGLIEQYYEFERRGQAMEVAIVLGVHPAITLSSQLPTQTFGLDKYNVASRLIGEPLPVVKCKTIDLEVPADAEIVLEGRMLPYVRHPEGPFGELMGYYGPQTMQPVVEVTAVTFRNNPIFQVIFPSSYEHKLPNALMREVVLFNHVRHVVPTVQDVHLTMAGGGRCHAIISIKKTAEGQGKQAIFAALASNKDVKHVVVVNDDVDIFDPEDVEWAIATRVQADQDIIIIPGAQGTPLEPSHNLRGVSAKMGIDATYPLAEEERFARTQIPGYDQIRLEDYLTLDW | soluble
LGSGTTEDVSDLPVEEQLRRLQEERTCKVCMDKEVSIVFIPCGHLVVCKDCAPSLRKCPICRSTIKGTVRTFLS | soluble
MVIEMEPDTHIISALVEHKPGVLQRVAGLFTRRGFNIENITVGESETPGIARMTIIARGDDRVLEQITKQLNKLIDVIKVRDLEPAATVKRELCMVKVHAPSESERSEIIQYTNIFRGRIVDVSPDALTVEVTGDSEKIDAFLELLRNFGIKELARTGPTAMSRGSRTM | not soluble
MSLSVPFEYTPIAQSVLDECEHLDTASLSDALDSLGIDGGLPGIASQVPGTRCVGIAFTVQYQPVDASEGFRGAANYIDQVPSGSVIVSSNSGRHDCTVWGDIMTHFALANGIKGTVIDGVARDIDTVINCNYPLFSRGRFMQSAKNRTQLKAVQVPLVIDGITIQPGDLMVCDGSGCVVVPQQLAAEVVLRARAVEQTERRIIEAISSGSTLEQARMTYRYDQPWLSEAEHGGTQEGHHHHHH | soluble
